Changes are numbered by the printed parent chain.
B1: 63A11_H2/_L0 (antibody)
chain 1: not shown
chain 2: DIVMTQSPDSLAVSLGERATINCRASKSVSTSGYSYMHWYQQKPGQPPKLLIYLASNLESGVPDRFSGSGSGTDFTLTISSLQAEDVAVYYCQHSRELPLTFGGGTKVEIKRTVAAPSVFIFPPSDEQLKSGTASVVCLLNNFYPREAKVQWKVDNALQSGNSQESVTEQDSKDSTYSLSSTLTLSKADYEKHKVYACEVTHQGLSSPVTKSFNRGEC
B2: 63A11_H3/_L0 (antibody)
chain 1: not shown
chain 2: B1 chain 2
B3: 63A11_H1/_L0 (antibody)
chain 1: not shown
chain 2: B1 chain 2
B4: 63A11_H1/_H1 (antibody)
chain 1: not shown
chain 2: B1 chain 2 with M4L
B5: 63A11 parental antibody (antibody, V domains shown)
VH: EVQLVESGGGLVKPGGSRKLSCAASGFTFSDHGMHWVRQAPEKGLEWVAYISSGSSAIFYADTVKGRFTMSRDNAKNTLFLQMTSLRSEDTAMYFCARWTNLYAMDYWGQGTSVTVSS
VL: DIVLTQSPASLAVSLGQRATISCRASKSVSTSGYSYMHWYQQKPGQPPKLLIYLASNLESGVPARFSGSGSGTDFTLNIHPVEEEDAATYYCQHSRELPLTFGAGTKLELKR
B6: 63A11_H3/_L1 (antibody)
chain 1: not shown
chain 2: B1 chain 2 with M4L
B7: 63A11_H2/_L1 (antibody)
chain 1: not shown
chain 2: B1 chain 2 with M4L
B8: 63A11_H0/_L0 (antibody)
chain 1: not shown
chain 2: B1 chain 2
B9: 63A11_H0/_L1 (antibody)
chain 1: not shown
chain 2: B1 chain 2 with M4L
B10: 63A11 H0/L1 (antibody)
chain 1: not shown
chain 2: B1 chain 2 with M4L
B11: 63A11 H2/L0 (antibody)
chain 1: not shown
chain 2: B1 chain 2
B12: 63A11 H3/L1 (antibody)
chain 1: not shown
chain 2: B1 chain 2 with M4L
B13: 63A11 H3/L0 (antibody)
chain 1: not shown
chain 2: B1 chain 2
B14: 63A11 H1/L0 (antibody)
chain 1: not shown
chain 2: B1 chain 2
B15: 63A11 H1/L1 (antibody)
chain 1: not shown
chain 2: B1 chain 2 with M4L
B16: 63A11 H2/L1 (antibody)
chain 1: not shown
chain 2: B1 chain 2 with M4L
B17: 63A11 H0/L0 (antibody)
chain 1: not shown
chain 2: B1 chain 2
B18: 51B12H0L1 (antibody)
chain 1: not shown
chain 2: B1 chain 2 with M4L, L98V, L100Y
B19: 51B12 H0L3 (antibody)
chain 1: not shown
chain 2: B1 chain 2 with M4L, L50F, L98V, L100Y
B20: *51B12 H0L2 (antibody)
chain 1: not shown
chain 2: B1 chain 2 with L50F, L98V, L100Y
B21: 51B12 H0L0 (antibody)
chain 1: not shown
chain 2: B1 chain 2 with L98V, L100Y
B22: 63A11 H0L1 (antibody)
chain 1: not shown
chain 2: B1 chain 2 with M4L

Molecular target: T1, human ZIP12 extracellular domain expressed as a GST fusion protein (UniProt Q504Y0 1-202)
Assay: SPR; replicate 2

Binder	Kd
B1	2.04 nM
B2	1.62 nM
B3	1.62 nM
B4	1.96 nM
B5	0.757 nM
B6	1.41 nM
B7	1.14 nM
B8	1.95 nM
B9	0.889 nM

Molecular target: T1, human ZIP12 extracellular domain …
Assay: ELISA

Binder	EC50
B10	0.0016 µg/mL
B11	0.0018 µg/mL
B12	0.0019 µg/mL
B5	0.0017 µg/mL
B13	0.002 µg/mL
B14	0.0018 µg/mL
B15	0.0015 µg/mL
B16	0.0016 µg/mL
B17	0.0018 µg/mL

Molecular target: T1, human ZIP12 extracellular domain …
Assay: SPR; replicate 2
Remark: another data set of the same source

Binder	Kd
B18	1.83 nM
B19	0.785 nM
B20	2.16 nM
B21	1.39 nM

Molecular target: T1, human ZIP12 extracellular domain …
Assay: SPR; summary value

Binder	Kd
B19	0.7 nM
B22	0.9 nM

Molecular target: T1, human ZIP12 extracellular domain …
Assay: SPR; replicate 1

Binder	Kd
B1	2.1 nM
B2	1.23 nM
B3	1.32 nM
B4	1.82 nM
B5	0.757 nM
B6	1.28 nM
B7	0.97 nM
B8	2.38 nM
B9	0.888 nM

Molecular target: human ZIP12 on human ZIP12 expressing transfectant cells (UniProt Q504Y0 1-691)
Assay: flow cytometry

Binder	EC50
B10	0.338 µg/mL
B11	0.411 µg/mL
B12	0.5 µg/mL
B5	0.233 µg/mL
B13	0.583 µg/mL
B14	0.508 µg/mL
B15	0.515 µg/mL
B16	0.586 µg/mL
B17	0.778 µg/mL

Molecular target: T1, human ZIP12 extracellular domain …
Assay: SPR; replicate 1
Remark: another data set of the same source

Binder	Kd
B18	4.17 nM
B19	0.605 nM
B20	0.706 nM
B21	1.39 nM

Source: US20230357387A1 (published 2023)
